Here are results for seven molecules from US20260325660 (published 2026).

For assay [1], the target named is human ROR2-ECD (human, UniProt Q01974). The assay can be described thus: ELISA. (ELISA stands for enzyme-linked immunosorbent assay.)
In assay [2] the target is ROR1 with Ig-like domain removed (human). Put plainly: FACS.
Assay [3] concerns the target T1, human ROR1 on tumor cell surface (human, UniProt Q01973). Put plainly: FACS, NCI-H226. (Flow cytometry measures light scatter and fluorescence of single cells or particles in a stream.)
The target of assay [4] is ROR1 extracellular segment (with transmembrane) on CHO (human). Put plainly: FACS.
Assay [5] addresses T2, ROR1 with Frizzled domain removed (human).
T2 chain: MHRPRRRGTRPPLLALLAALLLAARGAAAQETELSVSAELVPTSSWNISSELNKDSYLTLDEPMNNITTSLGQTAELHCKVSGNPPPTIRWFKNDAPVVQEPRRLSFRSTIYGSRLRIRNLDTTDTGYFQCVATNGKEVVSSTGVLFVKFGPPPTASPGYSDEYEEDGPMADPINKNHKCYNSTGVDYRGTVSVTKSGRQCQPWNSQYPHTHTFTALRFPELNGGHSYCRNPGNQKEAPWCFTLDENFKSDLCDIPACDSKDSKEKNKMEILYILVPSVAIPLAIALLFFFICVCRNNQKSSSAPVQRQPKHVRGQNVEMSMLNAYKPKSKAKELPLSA
The assay can be described thus: FACS.

For assay [6], the target named is ROR1 with Kringle domain removed (human). The assay can be described thus: FACS.
The target in assay [7] is T1, human ROR1 on tumor cell surface. Put plainly: FACS, MDA-MB-231.
The target in assay [8] is ROR1 with Ig-like domain removed (human). Put plainly: FACS. This is another data set of the same source.
Assay [9] has as its target human ROR1-ECD (human). Put plainly: ELISA.

Substitutions are numbered along the chain they refer to.

T1 sequence (Q01973 30-406): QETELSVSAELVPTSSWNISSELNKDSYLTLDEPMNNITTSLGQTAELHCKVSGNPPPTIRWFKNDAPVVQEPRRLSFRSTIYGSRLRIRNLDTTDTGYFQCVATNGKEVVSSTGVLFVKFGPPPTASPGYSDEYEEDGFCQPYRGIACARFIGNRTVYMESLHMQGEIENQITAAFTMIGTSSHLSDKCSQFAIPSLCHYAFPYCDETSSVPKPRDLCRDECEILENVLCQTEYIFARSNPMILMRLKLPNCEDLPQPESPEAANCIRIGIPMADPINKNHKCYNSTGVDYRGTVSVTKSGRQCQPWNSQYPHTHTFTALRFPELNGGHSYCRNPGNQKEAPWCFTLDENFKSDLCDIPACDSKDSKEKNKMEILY
Sequence of human ROR1-ECD (human) (chain, as listed by the source): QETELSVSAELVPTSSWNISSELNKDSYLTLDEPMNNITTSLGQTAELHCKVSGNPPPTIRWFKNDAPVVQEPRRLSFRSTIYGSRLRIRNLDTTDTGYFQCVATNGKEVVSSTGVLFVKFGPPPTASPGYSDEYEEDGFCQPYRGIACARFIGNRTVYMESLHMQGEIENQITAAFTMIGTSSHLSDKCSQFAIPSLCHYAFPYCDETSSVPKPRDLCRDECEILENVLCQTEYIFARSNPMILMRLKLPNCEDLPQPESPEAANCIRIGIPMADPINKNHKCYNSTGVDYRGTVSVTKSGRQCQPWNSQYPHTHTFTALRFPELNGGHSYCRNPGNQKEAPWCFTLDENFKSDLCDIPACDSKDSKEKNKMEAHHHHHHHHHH
Sequence of human ROR2-ECD (Q01974 34-403): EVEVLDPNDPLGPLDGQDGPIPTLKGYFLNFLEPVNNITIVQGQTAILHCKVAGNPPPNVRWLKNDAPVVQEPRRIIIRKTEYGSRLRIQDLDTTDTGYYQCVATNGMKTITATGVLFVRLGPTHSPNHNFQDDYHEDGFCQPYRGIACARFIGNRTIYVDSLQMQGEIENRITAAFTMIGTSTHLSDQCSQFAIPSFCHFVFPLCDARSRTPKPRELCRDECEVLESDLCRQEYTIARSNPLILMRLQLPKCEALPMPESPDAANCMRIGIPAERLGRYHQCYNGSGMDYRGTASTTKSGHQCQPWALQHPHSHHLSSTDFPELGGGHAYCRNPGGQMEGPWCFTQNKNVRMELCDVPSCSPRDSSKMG

B1: Hu001-02 (antibody, V domains shown)
VH: QVQLVQSGAEVKKPGASVKVSCKASGYTFTDYNLHWVRQAPGQGLEWMGYINPNHDATSYNQKFQGRVTMTRDTSTSTVYMELSSLRSEDTAVYYCARRVRTGTGLDDWGQGTTVTVSS
VL: DVVMTQSPLSLPVTLGQPASISCRSSHNIVHTNANTYLEWYQQRPGQSPRLLIYKVSNRFSGVPDRFSGSGSGTDFTLKISRVEAEDVGVYYCFQGSRFPYTFGGGTKVEIK
On to B1, for which the binding result in [1] is reported as “no binding”.

B2: UC-961 (antibody, V domains shown)
VH: QVQLQESGPGLVKPSQTLSLTCTVSGYAFTAYNIHWVRQAPGQGLEWMGSFDPYDGGSSYNQKFKDRLTISKDTSKNQVVLTMTNMDPVDTATYYCARGWYYFDYWGHGTLVTVSS
VL: DIVMTQTPLSLPVTPGEPASISCRASKSISKYLAWYQQKPGQAPRLLIYSGSTLQSGIPPRFSGSGYGTDFTLTINNIESEDAAYYFCQQHDESPYTFGEGTKVEIK
Consider B2, for which the binding result in assay [2] is “no binding”.

B3: mAb005c (antibody, V domains shown)
VH: EVQLVESGGGLVKPGGSLKLSCAASGFTFNSYAMSWVRQTPEKRLEWVATISDGGSYTYYPDNEKGRFTISRDNAKNNLYLQMSHLKSEDTAIYYCVRGGYYYNLYAMDYWGQGTSVTVSS
VL: DIVLTQSPASLAVSLGQRAIISCKASQSVSFPGTSLMHWYQQKPGQQPKLLIYRASNLEAGVPTRFSGSGSRTDFTLNIHPVEEDDTATYYCQQSREYPWTFGGGTQLEIK
Consider B3, for which the binding result in assay [2] was “no binding”.

B4: Hu005-46 (antibody, V domains shown)
VH: B3 VH with K19R, E42G, G54A, N78S, S84N, H85S, K87R, S88A, S116L
VL: DIVLTQSPDSLAVSLGERATINCKASQSVSFPGTSLMHWYQQKPGQQPKLLIYRASNLEAGVPDRFSGSGSRTDFTLTISSLQAEDVAVYYCQQSREYPWTFGGGTKVEIK
Regarding B4, the binding result in assay [1] is recorded as “no binding”.

B5: mAb003c (antibody, V domains shown)
VH: B3 VH with N30S, N63S, E64V, A92D, I93M
VL: B3 VL with P32A, T73A, T87A, R96G, Q107K
Regarding B5, the binding result in [2] is “no binding”.

B6: mAb002c (antibody)
chain 1: EVQLQQSGPELVKPGASVKMSCKTSGYTFTDYNLHWVKQSHRRSLEWIGYINPNNGGTTYNQKFKGKATLTVDKSSSTAYMELRSLTSEDSAVYYFVRRVRTGTGFDYWGQGTTLTVSS
chain 2: EVLMTQTPLSLPVSLGDQASISCKSSHNILHTNGNTYLEWYLQKPGQSPKLLIYKVSNRFSGVPDRFSGSGSGTDFTLTISRVEAEDLGVYYCFQGSRFPYTFGGGTKLEIK
The term EC50 denotes the midpoint of the concentration-response curve. The low end stands for an effect from little substance, the high end for a need for much substance. Turning to B6, the EC50 in assay [3] was found to be 0.14 nM; in assay [4], 0.6 nM; in [5], 0.86 nM; in [6], 0.66 nM; in assay [7], 0.2 nM; in [8] it was 0.35 nM. The same molecule returned an EC50 in assay [9] of 0.013 nM.

B7: mAb002 (mouse) (antibody)
chain 1: B6 chain 1
chain 2: B6 chain 2
Take B7: the EC50 in assay [7] was 0.11 nM; in assay [9], 0.028 nM.
